Ends that are not written are not given here.
Molecular target: BRD4-BD2 (recombinant, NMR and fluorescence anisotropy) (UniProt O60885 333-460)
Test: fluorescence polarisation

Ki: 800 µM
Binder: SPAQGK(Ac)RGK(Ac)KSA (peptide, UniProt Q15672 68-79, looked up) [Twist-K73ac/K76ac peptide (residues 68-79)]
